Source: US20110021757A1 (NATIONAL INSTITUTE OF AGROBIOLOGICAL SCIENCES, published 2011)

Target: T1, human transferrin (human, UniProt P02787 20-698)
T1 construct: The assay paragraphs say only 'transferrin (Biogenesis)'; also called transferrin (Biogenesis); antigen
Assay: ELISA, transferrin-coated plate, silk gland extract, anti-mouse Ig-HRP detection
Description: Measurement of the activity of a recombinant antibody against an antigen by enzyme-linked immunosorbent assay (ELISA) was carried out by the following procedure. […] This was homogenized using a glass homogenizer and centrifuged at 14,000 rpm for 20 minutes, and then the supernatant was diluted five times (40 mg/ml) and ten times ([…]) in Tris buffer. These samples and the undiluted sample (original concentration: 200 mg/ml) were used as samples for ELISA measurement. Furthermore, similar procedures were used to prepare samples of the Ser1GAL4 strain silkworms for ELISA measurement as a negative control. 100 μl of the samples for ELISA measurement thus prepared were dispensed into a microtiter plate (NUNC) presensitized with 100 μg/well of transferrin (Biogenesis), and the plate was shaken at room temperature for two hours. Next, the ELISA measurement samples were removed from the wells, and the wells were washed three times with 200 μl of PBS-T. Into each well, 100 μl of a solution prepared in advance by diluting a rabbit anti-mouse Ig-HRP-labeled antibody 100-fold with PBS (150 mM NaCl, 10 mM phosphate buffer, pH 7.4) was dispensed, and the plate was shaken at room temperature for six hours. […] After that, the absorbance at 450 nm was measured using a model 550 microplate reader (BioRad).

T1 sequence (P02787 20-698 limits assumed): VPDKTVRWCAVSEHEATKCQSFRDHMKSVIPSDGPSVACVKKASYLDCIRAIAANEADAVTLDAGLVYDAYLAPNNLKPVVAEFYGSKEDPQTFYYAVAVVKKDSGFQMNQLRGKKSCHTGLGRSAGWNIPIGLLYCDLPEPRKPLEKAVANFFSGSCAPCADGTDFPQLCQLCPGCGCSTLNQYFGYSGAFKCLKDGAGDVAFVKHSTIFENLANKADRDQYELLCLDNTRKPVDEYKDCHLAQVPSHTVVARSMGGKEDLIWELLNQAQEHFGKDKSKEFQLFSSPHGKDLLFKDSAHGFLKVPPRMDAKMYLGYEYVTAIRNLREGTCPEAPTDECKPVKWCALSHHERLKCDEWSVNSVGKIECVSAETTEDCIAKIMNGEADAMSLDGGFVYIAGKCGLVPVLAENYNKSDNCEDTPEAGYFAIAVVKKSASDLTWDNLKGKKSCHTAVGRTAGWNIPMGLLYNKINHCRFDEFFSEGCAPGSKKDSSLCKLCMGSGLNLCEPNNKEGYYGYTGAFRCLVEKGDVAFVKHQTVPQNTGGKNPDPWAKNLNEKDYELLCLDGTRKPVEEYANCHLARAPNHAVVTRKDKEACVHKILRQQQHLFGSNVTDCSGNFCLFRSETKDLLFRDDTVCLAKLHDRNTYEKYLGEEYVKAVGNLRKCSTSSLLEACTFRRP

B1: scFv antibody from a mouse anti-human transferrin antibody (anti-transferrin scFv antibody) (scFv)
scFv: LEVQLQESGPDLVKPSQSLSLTCTVTGYSITSGYSWHWIRQFPENKLEWLGYIHSSGATNYSPSLKSRFSITRDTSKNQFFLQLNSVTTEDTATYYCARDGYSPPYAMDYWGQGTTVTVSSGGGGSGGGGSGGGGSDIELTQSPSSLAVSVGEKVTMTCKSSQSLLYSTNQKNYLAWYQQKPGQSPKLLIYWASTRESGVPDRFTGSGSGTDFTLTISSVKAEDLSVYYCQQYYSYPPTFGSGTKLEIK
notes: The signal piece is left out here as a secretion signal; Tested as a crude middle silk gland extract of Ser1GAL4/UASFvaTf silkworms, not purified; also called aTf; FvaTf
Q: Does B1 bind?
A: Result: binds
